Measurements: US20200024330A1

Columns and labels:
Experiment in all cases: cell-based or functional assay
[1] = biological target: HIV-1 93IN905 envelope glycoprotein (Env) (HIV-1)
[2] = biological target: HIV-1 Env of isolate 94KE105 (HIV-1)
[3] = biological target: HIV-1 Env of isolate MGRM-A-001 (HIV-1)
[4] = biological target: HIV-1 Env of isolate MGRM-A-002 (HIV-1)
[5] = biological target: HIV-1 Env of isolate MGRM-A-003 (HIV-1)
[6] = biological target: HIV-1 Env of isolate MGRM-A-004 (HIV-1)
[7] = biological target: HIV-1 Env of isolate MGRM-A-005 (HIV-1)
[8] = biological target: HIV-1 Env of isolate MGRM-A-006 (HIV-1)
[9] = biological target: HIV-1 Env of isolate MGRM-A-007 (HIV-1)
[10] = biological target: HIV-1 Env of isolate MGRM-A-008 (HIV-1)
[11] = biological target: HIV-1 Env of isolate MGRM-A-009 (HIV-1)
[12] = biological target: HIV-1 Env of isolate MGRM-A-012 (HIV-1)
[13] = biological target: HIV-1 Env of isolate MGRM-A-013 (HIV-1)
[14] = biological target: HIV-1 Env of isolate VLGCA1 (HIV-1)
[15] = biological target: HIV-1 JRCSF envelope glycoprotein (Env) (HIV-1) (UniProt P20871)
[16] = biological target: HIV-1 MGRM-C-026 envelope glycoprotein (Env) (HIV-1)
[17] = biological target: HIV-1 MGRM-C-027 envelope glycoprotein (Env) (HIV-1)
[18] = biological target: HIV-1 MGRM-C-028 envelope glycoprotein (Env) (HIV-1)
[19] = biological target: HIV-1 NL43 envelope glycoprotein (Env) (HIV-1)
[20] = biological target: HIV-1 Env of isolate MGRM-F1-004 (HIV-1)
[21] = biological target: HIV-1 Env of isolate MGRM-F1-010 (HIV-1)

PGT-122 (antibody)
IC50 neutralization [1]: 0.0138 µg/mL
IC50 (µg/mL), pseudovirus neutralization [2]: 0.056 µg/mL
IC50 (µg/mL), pseudovirus neutralization [3]: > 50 µg/mL
IC50 (µg/mL), pseudovirus neutralization [4]: 0.017 µg/mL
IC50 (µg/mL), pseudovirus neutralization [5]: 3.79 µg/mL
IC50 (µg/mL), pseudovirus neutralization [6]: > 50 µg/mL
IC50 (µg/mL), pseudovirus neutralization [7]: > 50 µg/mL
IC50 (µg/mL), pseudovirus neutralization [8]: > 50 µg/mL
IC50 (µg/mL), pseudovirus neutralization [9]: > 50 µg/mL
IC50 (µg/mL), pseudovirus neutralization [10]: > 50 µg/mL
IC50 (µg/mL), pseudovirus neutralization [11]: 0.012 µg/mL
IC50 (µg/mL), pseudovirus neutralization [12]: 0.257 µg/mL
IC50 (µg/mL), pseudovirus neutralization [13]: 2.47 µg/mL
IC50 (µg/mL), pseudovirus neutralization [14]: > 50 µg/mL
IC50 neutralization [15]: 0.0727 µg/mL
IC50 neutralization [16]: 0.0089 µg/mL
IC50 neutralization [17]: 0.0388 µg/mL
IC50 neutralization [18]: 2.06 µg/mL
IC50 neutralization [19]: > 10 µg/mL

PGV04 (antibody)
IC50 (µg/mL), pseudovirus neutralization [2]: 2.98 µg/mL
IC50 [3]: 6.78 µg/mL
IC50 [4]: 0.093 µg/mL
IC50 [5]: 0.128 µg/mL
IC50 [6]: 0.175 µg/mL
IC50 [7]: 0.134 µg/mL
IC50 [8]: 0.244 µg/mL
IC50 [9]: 7.21 µg/mL
IC50 [10]: 0.555 µg/mL
IC50 [11]: 0.033 µg/mL
IC50 (µg/mL), pseudovirus neutralization [12]: 0.225 µg/mL
IC50 (µg/mL), pseudovirus neutralization [13]: 0.086 µg/mL
IC50 (µg/mL), pseudovirus neutralization [20]: 0.58 µg/mL
IC50 (µg/mL), pseudovirus neutralization [21]: 0.184 µg/mL
IC50 (µg/mL), pseudovirus neutralization [14]: 0.024 µg/mL

PGT-121 (antibody)
IC50 neutralization [1]: 0.0082 µg/mL
IC50 (µg/mL), pseudovirus neutralization [2]: 0.029 µg/mL
IC50 (µg/mL), pseudovirus neutralization [3]: > 50 µg/mL
IC50 (µg/mL), pseudovirus neutralization [4]: 0.013 µg/mL
IC50 (µg/mL), pseudovirus neutralization [5]: 0.435 µg/mL
IC50 (µg/mL), pseudovirus neutralization [6]: > 50 µg/mL
IC50 (µg/mL), pseudovirus neutralization [7]: > 50 µg/mL
IC50 (µg/mL), pseudovirus neutralization [8]: 0.396 µg/mL
IC50 (µg/mL), pseudovirus neutralization [9]: > 50 µg/mL
IC50 (µg/mL), pseudovirus neutralization [10]: > 50 µg/mL
IC50 (µg/mL), pseudovirus neutralization [11]: 0.006 µg/mL
IC50 (µg/mL), pseudovirus neutralization [12]: 0.092 µg/mL
IC50 (µg/mL), pseudovirus neutralization [13]: 0.387 µg/mL
IC50 (µg/mL), pseudovirus neutralization [14]: > 50 µg/mL
IC50 neutralization [15]: 0.0343 µg/mL
IC50 neutralization [16]: 0.0034 µg/mL
IC50 neutralization [17]: 0.0094 µg/mL
IC50 neutralization [18]: 1.19 µg/mL
IC50 neutralization [19]: > 10 µg/mL
